Experimental data reported in the DeepSol protein solubility set.

Assay: soluble on expression in E. coli; label from the status in PepcDB or PDB records

Soluble on expression in E. coli, not soluble:
MGSDKIHHHHHHIYCSGKLLQTVMAVQLYPDSKTFVDQPMKENQTGKSIMEHFEKRFPVSIEKITKKDVAEFVDEFFDKEGNELDVCDLPDWRPITEQLANIKDASYQAFAQRLHFIWIQLCRQIKPEVKNDPSRFSLIYVPYQFILPGGRFREFYYWDAYWILKGLIASELYSTARMMILNFAHIIETYGFVPNGGRVYYLRRSQPPFFAPMVYEYYLATQDIQLVADLIPVIEKEYTFWSERRTVNVTYEHPDLNETLHMFQYRTEAETPRPESFREDVLSAEHFTTKDRKKQFFKDLGSAAESGWDFSSRWFKNHKDISTIETTNIVPVDLNAFLCYNMNIMQLFYKLTGNPLKHLEWSSRFTNFREAFTKVFYVPARKGWYDYNLRTLTHNTDFFASNAVPLFSQCYDPLNSQIAVDVYNEMQNSGAFSIPGGIPTSMNEETNQQWDFPNGWSPMNHMIIEGLRKSNNPILQQKAFTLAEKWLETNMQTFNVSDEMWEKYNVKEPLGKLATGGEYEVQAGFGWTNGAALDLIFTYSDRLQYNGPILESLVGSQTTSMKSSPDSSTSLPIDITTTITTSSSSSTFGYSNILTLITVFVLYIL, MGSDKIHHHHHHKENNDFSSMQMKGVEQVSVKVDLDPAVERLSKAVQFRTISNQDRNDFDEKAFTDYHQFLEKAYPNVHKTLKREVLGSPRPFSLLYTWKGKDPSLPPALFYAHQDVVPVPSESRDQWAVDPFAGAVQDGYIWGRGVLDDKNQIHGILEAAEMKIKEGWQPSRTLYFVFGQDEEVGGPEGAKYIADVLEQRGIKRFAFVIDESAPLTPGIFPGIPDNTALIGIAQKGFVSLELAMNGIGGHSSQPPEESNIGILAKAITKLEAAQFPYRIHEAVRHQYRYMGPELSEDKQPMYAAVAFGKDGEITPLEQKFIDEMASQQVTRAMLHTTIAVTMFNAGIKDNVLPPSATAVVNFRPMPGDTPEVIIAHVKKAIGDDRITVRDISASTPATNVADPSSKSYQQLEKTIRQIYGNDLIVSPFFVIGGSDSKHFQARKFAPDVYTITGLQLESVKEFAGFHGVNERIRVDEYGRTIGFFYKLMDNLEEL, MGSDKIHHHHHHKGHRVTGSDANVYPPMSTQLEDQGIELIQGFDPSQLGEAGHYPDLVVIGNAMSRGNPCVEAVLNIGIPYTSGPQFLADHILPERWVLAVSGTHGKTSTSSMLAWILDDCGYEPGFLIGGVPQNFGVSARLGKTAFFVVEADEYDSAFFDKRSKFVHYHPRTLVINNLEFDHADIFADLAAIQKQFNHLVRTVPGEGKIVWPADSHAVKQTIDMGCWSEQETYHLAESANGWYGKALSDDCHRFEVFFDGESQGILEWDLIGQHNIENAMMAIAAARHVGVKPSAAIEALAKFMPPKRRLELLGTVNGVSVYDDFAHHPTAIATTLKGMRAKVGQSKITVVLEPRSNTMKSGVHKDTLAFSMMQADEAFLYQADTIDWNMKEAMEAAVIPVTVLHQIDDVVAKVTATAKAGDTIVVMSNGGFGGLHKKLLAALELRSTVELV, MGSDKIHHHHHHKLRDEGDAALKAKDYATVVTKYGEYLKQNNYQDTARIFNCGYAANQAKNYAEAAKYFDMAVKMNYNVDDSYVGEAMAYRNLNKTEEFLTTVKEGLKVIPDGNKNKTNLEKLLYGYCIKQGQAAQKKGDLAGAEKMYKEVLAVSNKDYQSNAYYSLGAMLYGNGAKILQAATPIATSEPDKYNAEKAKADKDFKQAKEYLTKAVELDPKDENSKKILASINDILK, MGSDKIHHHHHHKPGEVWPDDKGVHINAHGGGILRVGDTYYWFGEHKTEGSAGNLAQVGVHCYSSKDLYNWKDEGIALSVVPDDTTSHIVKGCVLERPKVIYNKKNDQYVMWFHLEPRGAGYSGALSGVAVSKNVAGPYSFVNAFRPNAGFWPVNVQELHKQPCTFSADLRFSGGELPAHPDSLNLLGRDQISGQMARDMNLFVDDDGIAYHIYSSEENSTLHISQLTDDYTSYSGKYARFFPGRFMEAPALFKQKGKYYLIMSGCTGWAPNAGRSAVASSIWGPWKELENPFRGENSEVSFYSQSTYVLPVPGHADRFIYMGDRWTPENAIDGRYIWLPIRFEGEQPVIEWRSEWSY, MGSDKIHHHHHHKTSSTQLPTIDAISSVADLTNAVNGVYEQQATEVGSYGAEFTLLADLRSGDFQSISTVNHAGPMYRYQTGKNDEMVYSFYKLFYNSLARLNNVLAAAENLEGADVDILKGELYAMRALYHFDLARVFAKLPSTTDMNDLGIVLSTEVYPTDYIGTRATLQQTYDQILKDIETALPLLSKDKQTGHINYWGALAIRARAYLYLEKNKEALADCKEIIASSPYKLYTRDEYIGAWDKEGTNEAIFEILVTPNYNAQRNSIGYFTHASGYGECAATESFLEELAKHPGDIRTELFAKETDNGYDGTYPQKYKGRDGQIYVNNPKVVRLSEVYLIAAEAALKAGDTSAAAGYMNTLRKNRIENYTDVASITLDDILLERRLELFTEGHTAWDAWRNGKSVNNKFVGEVKPGDYRTIMAIPIGEITVSRGQLIQNPGY, MGSDKIHHHHHHLIPVLDTDAWVEKLLSTRRSAEGKILAFYEHRMEAICRDPRLLLMPADDHLAHRGDGVFESMKFEGRRLYQLDAHLERMERSARGIYLTPPCTQSVLRDIVLQVARAADTPDGCIRILLGRGPGGFGIDPAECPVPSLYVVAYSLTPKPEEWYEKGVTAFRTSIPAKQGYLATIKNANYIPNVLMKLEARSRGCDIPVSFDENDFIAEGPTENLCLVDADGTLVVPEFTNALSGTTIMRVIDLVRDEMNVAFRKVREDELYRAAEVMVLGTTTECVSVVSFEGQPVGGGRPGPVARRFRELLRRDLAENGISF, MGSDKIHHHHHHLKICLSCSARFTDSGWRCPVCFSTPEQVDGFLSFAPAQAKSDEGFQPHHFNELAQAEAEHFWFRSRNRLIIWALHRFFPDARKFLEIGCGTGFVLSGIAQDNPRLEISGSEIHSAGLSHAADRARNATLFQMDARDIPFDSEFDVIGAFDVLEHIEEDSQVLLQMFRAISPGGGMIVTVPQHRFLWSQQDEHACHVRRYEAQELQDKVEKAGFRVEKATSFVSLLLPLMFISRLSKRKPVENYDPTQEFRIKKWVNTILEGILDLERLMIRGRVSFPMGGSRLLIARKPAGA, MGSDKIHHHHHHLPSARLSPRLSSPAGCRQTEWSQMPEAFIELRAITKRFSGVCALDALSLTINKGEIHCLAGENGSGKSTVIKVMAGVYQPDGGEILINGAPVRALTPIEAVRRNIQVIYQDFSLFGNLTVAENLALCGELQQKRKLADWKRIRAIGRQALDRLGVDIDLEVDVERLPTSSRQIVAIARALMSDAKLLIMDEPTTALTGREVDALFRIVKDIQAQGIAVLFVSHKMREMLEISERLTVIRNGRTVIDGPTSAFDESAVTRHMTGLDILSEGYAWAGSPEAVPRLEVRGLSLPGAFEDLSLAIRPGEIVGLSGLLGSGRTEFALSLFGMMPPAAGQVLVDGAQIAPRSVQDAIAEGITYVPEDRLTEGLFLTQSIDRNILATSYERLAPRGVIDRAKAAMQSAGMIKAMQIATPTGEKPVGQLSGGNAQRVVLARWLLTDAKVLILNGPTVGVDVGSKAEIHRKIRELASAHGLAVLMISDDVLELVQNTNRIVLMHRGRFVDDLPTATVSEQSINDLLKSFT, MGSDKIHHHHHHLSISIGSIKRAEAGKNILYRTLVQLSEFFHISIEDLIGDIPVSLWDYVRERPTQLIPCIGRDWELSLLQKLQLSSKTGLKTACVYGMQGLGKTSLVRHFLSRLDQTNWRALYLCSLDQGTFLRRFICTLLDISEIFDDEQLRFRIKMISTSPLVYFYLLRLSGLVLHKSELQAINNLSENRLHEVEVLSVMGLIQNFKQRKVSVLAIDSLHILNEGQLRVIKIFTQNMITQPILIIFSLTDVHRLLYLPDWLQSSNQIQLKPLQAIAMNALVNNEVEMNPCQPMKLAAYKKIVVQRARGNPLILKALIKSKRPDQDFPEEMVNSVQGMLTQLTGIECRLLQFLAACGPCVSIDTLELFNSQLSEPCICLLHRLVRIGFLYPRSECYIFRHILIWEIVKAQMNDSDTASVYSEQHNRLNA, MGSDKIHHHHHHLTNQMVYVYKDGKQVVSSQCVTGCIAKGHGTPTGVYSIFSMDKDRYLRGDGYKSWVNFFVPFNGGIGFHDASWRSTFGGNIYLYSGSHGCINMPYSEVKKLFANVSMGETVIVYGGATSVDGKEQSFTGQDAYSVTEGDASFNLGVTAQDNAKLTYVSDNEWVAKVDESGNVTPVGVGTATITVKSEATAGYRAGTKTITVTVNAKAQPQVQPQKPAQQQPQKPAQQQQPQKPAAKKDASVNVSESDVSLEINGTKKINISVSSDTGATVEVESGDASVATLDSNGNIVAKNEGQVTYKVYTKATGSYNASNVSYVTIKVSKPAEPDDSGADADRE, MGSDKIHHHHHHLVSDNMVLQQATKVRLWGNATPNSSLKVRSSWDNTEYTAQVNDQGRWEIWVQTPSASFEKQQLTLKNGQDKIVLHDLLIGEVWFGSGQSNMEMPLRGFWHCPIEGGNHAIATSGKYKNSIRYATIQRVGALEPKDYPVGGEWKVCDPRNAPEFGATAYFFATLLTEVLNVPVGIINCSWGGSTVEGWLPKDILRNYSDIDLSLAGNDEKIHPMLQPMIMYNGMLKPASKYTVRGFLWYQGESNVGHPDYAKRLATMVEHWRGLWGQEELPFYLVEIAPYEYGEGDQAAYLREEQYKATRLIPNSGIVSTNDLVQDYEKRQIHPKEKQKIGERLCYMALNKTYGYTTIACEGPQYDHMEVDKDKIILFFKNAEDGFNRDNGIIGFEIAGKDMRFHKANATIDANKKTVIISAPDVKAPIAVRYGFRNFQIGNLQNVQGLPVLPFRTDK, MGSDKIHHHHHHMAAKIITVFNQKGGCGKTTVSMHLAGTLGLRGARSMLVDMDEQGTATRWAAQASDERPFPASVIGLAPSGGAMHREVRKFVQDYDYIVVDCPPAVHSAAPSSALLISDLAIIPVVPSPPDLWAAVAAKTLAQHAQVQNETLLIRVMANMVQRRVSIARQAIEILGDDGEVPLLNSMIGSRSAFRECQAIGCTVHGVAGAREAVQEVDMMVDEVLSLIEH, MGSDKIHHHHHHMAATFKMVGVIRFSLLTPTFNADRYPDLEAAAAAIFAPDRMALRLHLFETLCLPSLVRQSDAAFHLVVATSDRLPAVILQHLQALLAPHDHMQLIQFAPENHYQILKEAYRAVPQQGESHRILFRLDDDDALDRHYVARCKRLAAGLVPLQTEAVSPIALAFNRGYYLIREEGQPPVVMDSCERAPLSAGTALVQPIAARGNPYRYNHRKFAQHYTLYSDISVPSFVRTVHGDNHSTPAMMGLTARQSDAEMDADLQRHFDLSLSDLKAI, MGSDKIHHHHHHMAATPRKLSSKEVAALVGNLMEASESTSLENGLEVRPYAFGENELNQLGDYHALRIINERFCRTARDVFLPMLRLQPRISSFPPEVRSFDDYRSSQDNFVSITASRIEELRGNQMIVIPPPFISLLTDSYYGGQIRHVPTTRTEFTATEERVIELVTDRLNVALQVAWRDLMALTFTVVSREESMQFASFVDGEDMVVNCSFMVQLPNTEPASFDILYPLQTLKPISSQLRSRMQSDFVDDDRSWREKLERAILSIPLTLSARLCEPEVPLRQLMQMQPGDVLPVHLTEAVSLLVEGQPIFEAAPGERGGQAALNLTRRHVRS
